Results published in patent publication US20060251646A1 (CELLACT PHARMA, published 2006).
Each block holds one binder with its values, some of them ahead of it.

What was measured:
[1] = target: human T-cell immune response cDNA 7 (TIRC7) protein (human, UniProt Q13488 1-830); experiment: cell-based or functional assay
[2] = target: T1, peptide 6 (TIRC7 derived peptide DLPDASVNGWSSDE); experiment: method not stated
T1 construct: Fragment of TIRC7, used coated on ELISA plates at 100 ng peptide/well; also called Peptid6
T1 peptide: DLPDASVNGWSSDE

Chain of human T-cell immune response cDNA 7 (TIRC7) protein (Q13488 whole entry): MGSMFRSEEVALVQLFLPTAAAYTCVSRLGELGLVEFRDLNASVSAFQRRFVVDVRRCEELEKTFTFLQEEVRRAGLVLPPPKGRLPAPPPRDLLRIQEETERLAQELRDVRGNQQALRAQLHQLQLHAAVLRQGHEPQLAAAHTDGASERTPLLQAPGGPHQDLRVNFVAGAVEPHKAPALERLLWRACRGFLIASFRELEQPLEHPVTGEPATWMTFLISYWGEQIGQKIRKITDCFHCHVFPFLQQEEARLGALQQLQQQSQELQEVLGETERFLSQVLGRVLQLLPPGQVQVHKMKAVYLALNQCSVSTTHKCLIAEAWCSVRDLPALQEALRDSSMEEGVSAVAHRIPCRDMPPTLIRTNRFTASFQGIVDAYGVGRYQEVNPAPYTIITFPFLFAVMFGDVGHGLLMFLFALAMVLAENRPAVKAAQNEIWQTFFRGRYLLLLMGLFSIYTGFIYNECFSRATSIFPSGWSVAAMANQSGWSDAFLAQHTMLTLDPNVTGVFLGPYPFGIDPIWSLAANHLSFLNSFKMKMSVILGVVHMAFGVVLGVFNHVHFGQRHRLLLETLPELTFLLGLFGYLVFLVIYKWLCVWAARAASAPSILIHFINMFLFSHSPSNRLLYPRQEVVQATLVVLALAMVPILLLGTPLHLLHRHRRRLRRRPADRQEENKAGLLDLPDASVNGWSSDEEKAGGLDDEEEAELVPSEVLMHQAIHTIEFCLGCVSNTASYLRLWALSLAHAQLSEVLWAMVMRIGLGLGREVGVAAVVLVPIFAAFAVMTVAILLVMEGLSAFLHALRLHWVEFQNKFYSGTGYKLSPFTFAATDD

Inhibition of cytokine secretion (IFNγ) calculated relative to the isotype control at the same concentration, PHA-stimulated human PBMC, 10 µg/ml murine Neliximab [1]: 78% | Inhibition of cytokine secretion (IFNγ) calculated relative to the isotype control at the same concentration, PHA-stimulated human PBMC, 50 µg/ml murine Neliximab [1]: 39% | Inhibition of cytokine secretion (IFNγ) calculated relative to the isotype control at the same concentration, PHA-stimulated human PBMC, 100 µg/ml murine Neliximab [1]: 20% | Inhibition of cytokine secretion (IFNγ) calculated relative to the isotype control at the same concentration, PHA-stimulated human PBMC, 200 µg/ml murine Neliximab [1]: 3% | Kd [2]: 1 nM
B1: murine Neliximab (murine anti-human TIRC7 monoclonal antibody, clone #17) (antibody, V domains shown)
VH: EVQLQQSGPELVKPGASVKMSCKASGYTFTTYVMHWVKQKPGQGLEWIGYINPYNDGTNYNEKFKGKATLTSDKSSSTAYMELSTLTSEDSAVYYCAEFITKTVGGSNWYLDVWGAGTTVTVSS
VL: QIVLTQSPAIMSASPGEKVTMTCSASSSISYIHWFQQKPGTSPKRWIYDTSKLPSGVPARFSGSGSGTSYSLTISSMEAEDAATYYCHQRSSYTWTFGGGTKLEIKR
notes: also called murine anti-human TIRC7 mAb; murine mAb

Kd [2]: 1 nM
B2: Neliximab (chimeric murine/human anti-human TIRC7 monoclonal antibody) (antibody, V domains shown)
VH: B1 VH
VL: QIVLTQSPAIMSASPGEKVTMTCSASSSISYIHWFQQKPGTSPKRWIYDTSKLPSGVPARFSGSGSGTSYSLTISSMEAEDAATYYCHQRSSYTWTFGGGTKLEIK
notes: also called chimeric Neliximab; chimeric anti-human TIRC7 mAb
